First the molecules themselves.
B1: chimeric 166-32 Fab (Fab, V domains shown)
VH: QIQLVQSGPELKKPGETVKISCKASGYTFTNYGMNWVKQAPGKGLKWMGWINTYTGETTYADDFKGRFVFSLETSASTAYLEINNLKNEDMATYFCEREGGVDNWGQGTTLTVSS
VL: ETTVTQSPASLSMAIGEKVTIRCITSTDIDDDMNWYQQKPGEPPKLLISGGNTLRPGVPSRFSSSGYGADFVFTIDNMLSEDVADYYCLQSDNLPYTFGGGTRLEIK
notes: Tested as a Fab; also called chimeric Fab
B2: humanized anti-Factor D Fab clone #250 (Fab, V domains shown)
VH: QVQLVQSGPELKKPGASVKVSCKASGYTFTNYGLNWVRQAPGQGLEWMGWINTYTGETTYADDFKGRFVFSLDTSVSTAYLQISSLKAEDTAVYYCEREGGVNNWGQGTLVTVSS
VL: DIQVTQSPSSLSASVGDRVTITCITSTDIDDDMNWYQQKPGKVPKLLISHGNTLRPGVPSRFSGSGSGTDFTLTISSLQPEDVATYYCLQSDSLPYTFGQGTKLEIK
B3: humanized anti-Factor D Fab clone #56 (Fab, V domains shown)
VH: QVQLVQSGPELKKPGASVKVSCKASGYTFTNYGMNWVKQAPGQGLEWMGWINTYTGETTYADDFKGRFVFSLDTSVSTAYLQISSLKAEDTATYYCEREGGVDNWGQGTLVTVSS
VL: DIQVTQSPSSLSASVRDRVTITCITSTDIDDDMNWYQQKPGKVPKLLISGGNTLRPGVPSRFSGSGSGTDFTLTISSLQPEDVATYYCLQSDNLPYTFGQGTKLEIK
B4: humanized anti-Factor D Fab clone #416 (Fab, V domains shown)
VH: QVQLVQSGPELKKPGASVKVSCKASGYTFTSYGMNWVRQAPGQGLEWMGWINTYTGETTYADDFKGRFVFSLDTSVSTAYLQISSLKAEDTAVYYCEREGGVNNWGQGTLVTVSS
VL: DIQVTQSPSSLSASVGDRVTITCITSTDIDDDMNWYQQKPGKVPKLLISDGNTLRPGVPSRFSGSGSGTDFTLTISSLQPEDVATYYCLQSDSLPYTFGQGTKLEIK

The source of these data is patent US20130171070A1 (Genentech, published 2013).

The assay deals with T1, Human factor D (Advanced Research Inc) (human, UniProt P00746 26-253).
T1 construct: Amine-coupled directly to a CM5 chip for BIAcore; also called factor D antigen
T1 sequence (P00746 26-253 limits assumed): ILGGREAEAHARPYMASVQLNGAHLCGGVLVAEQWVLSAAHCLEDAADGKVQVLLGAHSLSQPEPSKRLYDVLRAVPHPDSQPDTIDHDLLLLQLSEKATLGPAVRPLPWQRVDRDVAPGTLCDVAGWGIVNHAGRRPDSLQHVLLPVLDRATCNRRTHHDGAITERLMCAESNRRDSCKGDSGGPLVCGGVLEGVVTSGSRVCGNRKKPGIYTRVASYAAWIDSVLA
The assay can be described thus: SPR (BIAcore), human factor D amine-coupled to CM5 chip, Fab as analyte, 1:1 model, global fit. The procedure: Immobilization—Human factor D (Advanced Research Inc, 0.1 mg/ml) was directly immobilized onto the CM5 chip (BiaCore) using amine-coupling method. The procedure is briefly described as following: (1) Constant flow (PBS) is at 5 μl/min, (2) Injection of 35 μl EDC/NHS (1:1). (3) Injection of 35 μl of human factor D in acetate buffer, pH 4.5. (4) Block the activated group by injection of 35 μl etholamine. (5) Clean-up the surface by 5 μl 10 mM Glycine pH 1.5.
Kinetic analysis—All anti-human factor D Fabs were diluted in PBS buffer. Each sample was prepared in a series of concentrations: 12.5 nM, 25 nM. 50 nM, 75 nM, 100 nM, 125 nM, and 150 nM, with 40 μl injection pulse at high acquisition rate. Regeneration was accomplished by applying 5 μl pulse of 10 mM Glycine at pH 1.5. Kinetic parameters were obtained by fitting Fabs binding traces to 1:1 binding model under pseudo-first order kinetic using BIAvaluation version 3.0. All data are obtained by global fitting routine.
(Surface plasmon resonance follows binding to a sensor surface in real time, without labels.)
Broadly, the Kd is the equilibrium constant for the complex coming apart. The low end stands for tighter binding, the high end for weaker binding. As a reminder, the koff is the rate constant with which the complex falls apart. The kon is the rate constant with which the complex forms. Consider B1, for which binding was characterised by a dissociation constant (Kd) of 2.7 nM, the koff worked out at 0.0012 s⁻¹ and the kon was 440000 M⁻¹ s⁻¹.
As to B2, the Kd worked out at 0.33 nM, the koff came to 0.00019 s⁻¹ and the kon was 570000 M⁻¹ s⁻¹.
The corresponding values for B3 are 2.7 nM, 0.00098 s⁻¹ and 360000 M⁻¹ s⁻¹.
With B4, the Kd is 0.33 nM, the koff was determined as 0.00018 s⁻¹ and the kon was 820000 M⁻¹ s⁻¹.
